According to paper doi:10.1101/212233 (bioRxiv, 2017):

Molecular target: the molecule itself
Experiment: cryo-EM structure

| Protein | binding result |
| --- | --- |
| DARP14 subunit A (cage subunit A fused to the DARPin by a continuous alpha helix) (other) MRITTKVGDKGSTRLFGGEEVWKDSPIIEANGTLDELTSFIGEAKHYVDEEMKGILEEIQNDIYKIMGEIGSKGKIEGISEERIAWLLKLILRYMEMVNLKSFVLPGGTLESAKLDVCRTIARRALRKVLTVTREFGIGAEAAAYLLALSDLLFLLARVIEIELGKKLLEAARAGQDDEVRILMANGADVNAHDDQGSTPLHLAAWIGHPEIVEVLLKHGADVNARDTDGWTPLHLAADNGHLEIVEVLLKYGADVNAQDAYGLTPLHLAADRGHLEIVEVLLKHGADVNAQDKFGKTAFDISIDNGNEDLAEILQKLN | binds |
| DARP14 subunit B (unfused cage subunit B) (other) MPHLVIEATANLRLETSPGELLEQANKALFASGQFGEADIKSRFVTLEAYRQGTAAVERAYLHACLSILDGRDIATRTLLGASLCAVLAEAVAGGGEEGVQVSVEVREMERLSYAKRVVARQR | binds |
